From the supplement of paper PMC9112550, “Optimization of the antimicrobial peptide Bac7 by deep mutational scanning” (BMC Biology, 2022) come the findings set out here.
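Further: peptides expressed intracellularly from a pBAD plasmid library in pooled LB shake-flask culture, induced with 0.3% L-arabinose, DNA abundance read by NGS, three biological replicates, DESeq2 with apeglm shrinkage.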

This data set concerns Escherichia coli TOP10. The data set is described as follows: shrunken log2 fold change of peptide-encoding DNA abundance (4.5 h post-induction vs induction); higher = less antimicrobial activity (less host growth inhibition). Particulars: time post-induction: 4.5 h; library: site-saturation at positions 5, 18, 19, 20.
As to RRIRYRPPRLPRPRPRPPCWPRP, the “shrunken log2 fold change” value stood at 0.263.

Regarding RRIRGRPPRLPRPRPRPTQKPRP, the “shrunken log2 fold change” value worked out at 1.22.

Regarding RRIRCRPPRLPRPRPRPWMMPRP, the “shrunken log2 fold change” value is -0.0394.

With RRIRKRPPRLPRPRPRPCYCPRP, the “shrunken log2 fold change” value was -0.0227.

Consider RRIRTRPPRLPRPRPRPTRDPRP, for which the “shrunken log2 fold change” value is 0.136.

Consider RRIRGRPPRLPRPRPRPIETPRP, for which the “shrunken log2 fold change” value was 0.312.

As for RRIRTRPPRLPRPRPRPKSMPRP, the “shrunken log2 fold change” value is -0.62.

With RRIRMRPPRLPRPRPRPRQAPRP, the “shrunken log2 fold change” value worked out at 0.013.

Take RRIRGRPPRLPRPRPRPFDAPRP: the “shrunken log2 fold change” value is -0.00556.

As to RRIRHRPPRLPRPRPRPENDPRP, the “shrunken log2 fold change” value is 0.00527.

For the sequence RRIRHRPPRLPRPRPRPFQSPRP, the “shrunken log2 fold change” value was -0.00192.

On to RRIRHRPPRLPRPRPRPIGYPRP, for which the “shrunken log2 fold change” value was 0.0062.

Consider RRIRKRPPRLPRPRPRPLYFPRP, for which the “shrunken log2 fold change” value was -0.271.

As for RRIRARPPRLPRPRPRPQMAPRP, the “shrunken log2 fold change” value stood at 0.274.

In the case of RRIRWRPPRLPRPRPRPIHLPRP, the “shrunken log2 fold change” value is -0.0188.

For RRIRGRPPRLPRPRPRPELEPRP, the “shrunken log2 fold change” value was determined as 2.14.

For the sequence RRIRKRPPRLPRPRPRPEICPRP, the “shrunken log2 fold change” value stood at 0.661.

With RRIRDRPPRLPRPRPRPHQLPRP, the “shrunken log2 fold change” value was -0.0991.

With RRIRIRPPRLPRPRPRPIPYPRP, the “shrunken log2 fold change” value was -0.295.

Take RRIRQRPPRLPRPRPRPGPDPRP: the “shrunken log2 fold change” value turned out to be 0.163.

For the sequence RRIRGRPPRLPRPRPRPERYPRP, the “shrunken log2 fold change” value is -0.107.

Regarding RRIRTRPPRLPRPRPRPKSCPRP, the “shrunken log2 fold change” value is -0.0893.

Regarding RRIRKRPPRLPRPRPRPTTVPRP, the “shrunken log2 fold change” value turned out to be 0.331.

RRIRWRPPRLPRPRPRPHSQPRP: the “shrunken log2 fold change” value was found to be 0.0984.

Consider RRIRHRPPRLPRPRPRPPVRPRP, for which the “shrunken log2 fold change” value is 0.16.

For RRIRHRPPRLPRPRPRPMNEPRP, the “shrunken log2 fold change” value is -0.275.

For the sequence RRIRYRPPRLPRPRPRPPVDPRP, the “shrunken log2 fold change” value is 0.155.

For RRIRSRPPRLPRPRPRPAHSPRP, the “shrunken log2 fold change” value is -0.332.

Regarding RRIRNRPPRLPRPRPRPQEIPRP, the “shrunken log2 fold change” value was -0.00783.

On to RRIRFRPPRLPRPRPRPDCVPRP, for which the “shrunken log2 fold change” value was -0.0904.

RRIRPRPPRLPRPRPRPWLNPRP: the “shrunken log2 fold change” value is -0.541.

As for RRIRARPPRLPRPRPRPMGCPRP, the “shrunken log2 fold change” value was 0.495.

With RRIRRRPPRLPRPRPRPCSFPRP, the “shrunken log2 fold change” value is -0.0171.

For the sequence RRIRKRPPRLPRPRPRPHMQPRP, the “shrunken log2 fold change” value is -0.0772.

RRIRKRPPRLPRPRPRPLCSPRP: the “shrunken log2 fold change” value came out at 0.0457.

On to RRIRQRPPRLPRPRPRPIECPRP, for which the “shrunken log2 fold change” value is -0.0217.

Turning to RRIRCRPPRLPRPRPRPNDNPRP, the “shrunken log2 fold change” value was -0.692.

For the sequence RRIRVRPPRLPRPRPRPRARPRP, the “shrunken log2 fold change” value amounted to 0.737.

Turning to RRIRIRPPRLPRPRPRPVTLPRP, the “shrunken log2 fold change” value was -0.093.

RRIRNRPPRLPRPRPRPSLDPRP: the “shrunken log2 fold change” value was -0.258.

Regarding RRIRMRPPRLPRPRPRPHLCPRP, the “shrunken log2 fold change” value is -0.117.

Regarding RRIRKRPPRLPRPRPRPARPPRP, the “shrunken log2 fold change” value was determined as 0.575.

For RRIRNRPPRLPRPRPRPEIHPRP, the “shrunken log2 fold change” value amounted to 0.116.

Take RRIRFRPPRLPRPRPRPQFYPRP: the “shrunken log2 fold change” value is -0.592.

On to RRIRWRPPRLPRPRPRPVTKPRP, for which the “shrunken log2 fold change” value came to 0.235.

For the sequence RRIRMRPPRLPRPRPRPEMTPRP, the “shrunken log2 fold change” value was -0.00169.

With RRIRYRPPRLPRPRPRPLMKPRP, the “shrunken log2 fold change” value was -0.179.

For RRIRNRPPRLPRPRPRPLYTPRP, the “shrunken log2 fold change” value was -0.269.

As to RRIRNRPPRLPRPRPRPKSMPRP, the “shrunken log2 fold change” value was determined as 0.0478.

On to RRIRKRPPRLPRPRPRPKMYPRP, for which the “shrunken log2 fold change” value is -0.0411.

As for RRIRLRPPRLPRPRPRPTTDPRP, the “shrunken log2 fold change” value is -0.287.

Turning to RRIRFRPPRLPRPRPRPMAMPRP, the “shrunken log2 fold change” value came out at 0.102.

Consider RRIRQRPPRLPRPRPRPSIRPRP, for which the “shrunken log2 fold change” value is -0.523.

Consider RRIRTRPPRLPRPRPRPGHKPRP, for which the “shrunken log2 fold change” value is -0.106.

Take RRIRCRPPRLPRPRPRPHGLPRP: the “shrunken log2 fold change” value was -0.0989.

Consider RRIRHRPPRLPRPRPRPYDPPRP, for which the “shrunken log2 fold change” value is -0.00884.

Take RRIRERPPRLPRPRPRPVHYPRP: the “shrunken log2 fold change” value came to 0.198.

On to RRIRFRPPRLPRPRPRPRWNPRP, for which the “shrunken log2 fold change” value came out at 0.00853.

With RRIRPRPPRLPRPRPRPEPRPRP, the “shrunken log2 fold change” value was 1.05.

Consider RRIRERPPRLPRPRPRPPPYPRP, for which the “shrunken log2 fold change” value is -0.231.

Take RRIRHRPPRLPRPRPRPCMPPRP: the “shrunken log2 fold change” value is 0.0401.

With RRIRMRPPRLPRPRPRPYWRPRP, the “shrunken log2 fold change” value was -0.159.

Regarding RRIRDRPPRLPRPRPRPEGGPRP, the “shrunken log2 fold change” value came out at 0.966.

RRIRHRPPRLPRPRPRPYCQPRP: the “shrunken log2 fold change” value was -0.746.

In the case of RRIRQRPPRLPRPRPRPGQYPRP, the “shrunken log2 fold change” value was -0.156.

RRIRLRPPRLPRPRPRPADYPRP: the “shrunken log2 fold change” value was -0.0944.

RRIRPRPPRLPRPRPRPLYEPRP: the “shrunken log2 fold change” value is -0.303.

RRIRERPPRLPRPRPRPCCYPRP: the “shrunken log2 fold change” value stood at 0.00792.

For the sequence RRIRKRPPRLPRPRPRPSEMPRP, the “shrunken log2 fold change” value is -0.17.

On to RRIRWRPPRLPRPRPRPIYDPRP, for which the “shrunken log2 fold change” value was -0.227.

RRIRCRPPRLPRPRPRPFEAPRP: the “shrunken log2 fold change” value was 0.102.

Regarding RRIRDRPPRLPRPRPRPPGNPRP, the “shrunken log2 fold change” value was determined as 0.21.

RRIRHRPPRLPRPRPRPWFTPRP: the “shrunken log2 fold change” value is -0.0018.

RRIRLRPPRLPRPRPRPTMIPRP: the “shrunken log2 fold change” value is -0.164.

For the sequence RRIRERPPRLPRPRPRPYQDPRP, the “shrunken log2 fold change” value is -0.0275.

Turning to RRIRRRPPRLPRPRPRPTIFPRP, the “shrunken log2 fold change” value was determined as 0.149.

Turning to RRIRLRPPRLPRPRPRPWEKPRP, the “shrunken log2 fold change” value was 0.0916.

RRIRKRPPRLPRPRPRPSIMPRP: the “shrunken log2 fold change” value was -0.195.

Turning to RRIRCRPPRLPRPRPRPLSPPRP, the “shrunken log2 fold change” value amounted to 0.107.

In the case of RRIRGRPPRLPRPRPRPLSTPRP, the “shrunken log2 fold change” value came out at 1.13.

For the sequence RRIRHRPPRLPRPRPRPGNVPRP, the “shrunken log2 fold change” value is -0.36.

For RRIRTRPPRLPRPRPRPHMNPRP, the “shrunken log2 fold change” value was -0.547.

Regarding RRIRHRPPRLPRPRPRPVAIPRP, the “shrunken log2 fold change” value is 2.06.

RRIRNRPPRLPRPRPRPVYIPRP: the “shrunken log2 fold change” value was -0.434.

Turning to RRIRTRPPRLPRPRPRPCNSPRP, the “shrunken log2 fold change” value is -0.0206.

For RRIRARPPRLPRPRPRPVCKPRP, the “shrunken log2 fold change” value came out at 0.195.

For RRIRWRPPRLPRPRPRPSNSPRP, the “shrunken log2 fold change” value was -0.498.

RRIRVRPPRLPRPRPRPPQSPRP: the “shrunken log2 fold change” value was found to be 0.249.

In the case of RRIRYRPPRLPRPRPRPLNGPRP, the “shrunken log2 fold change” value is -0.159.

For RRIRNRPPRLPRPRPRPEMLPRP, the “shrunken log2 fold change” value amounted to 0.0345.

With RRIRARPPRLPRPRPRPRWTPRP, the “shrunken log2 fold change” value amounted to 0.145.

On to RRIRRRPPRLPRPRPRPITTPRP, for which the “shrunken log2 fold change” value was found to be 0.032.

For RRIRGRPPRLPRPRPRPSDDPRP, the “shrunken log2 fold change” value worked out at 0.108.

Regarding RRIRQRPPRLPRPRPRPQYQPRP, the “shrunken log2 fold change” value is -1.46.

For the sequence RRIRLRPPRLPRPRPRPTKLPRP, the “shrunken log2 fold change” value was -0.0137.

Turning to RRIRFRPPRLPRPRPRPAAHPRP, the “shrunken log2 fold change” value came out at 0.333.

As to RRIRGRPPRLPRPRPRPWSMPRP, the “shrunken log2 fold change” value was found to be 0.0583.

On to RRIRHRPPRLPRPRPRPMNQPRP, for which the “shrunken log2 fold change” value was -0.221.

Regarding RRIRRRPPRLPRPRPRPAVSPRP, the “shrunken log2 fold change” value was -0.136.

With RRIRKRPPRLPRPRPRPPLKPRP, the “shrunken log2 fold change” value was determined as 0.419.

Turning to RRIRIRPPRLPRPRPRPDHPPRP, the “shrunken log2 fold change” value is -0.266.

Regarding RRIRARPPRLPRPRPRPLPHPRP, the “shrunken log2 fold change” value was 0.209.

Take RRIRCRPPRLPRPRPRPHLVPRP: the “shrunken log2 fold change” value is 0.565.

Consider RRIRTRPPRLPRPRPRPLMGPRP, for which the “shrunken log2 fold change” value amounted to 0.0521.

As for RRIRERPPRLPRPRPRPFLFPRP, the “shrunken log2 fold change” value was -0.286.

Turning to RRIRVRPPRLPRPRPRPTYEPRP, the “shrunken log2 fold change” value is -0.152.

Take RRIRDRPPRLPRPRPRPSVLPRP: the “shrunken log2 fold change” value is -0.246.

Consider RRIRGRPPRLPRPRPRPGTDPRP, for which the “shrunken log2 fold change” value stood at 0.472.

As for RRIRFRPPRLPRPRPRPVQRPRP, the “shrunken log2 fold change” value is -0.072.

As to RRIRMRPPRLPRPRPRPRCSPRP, the “shrunken log2 fold change” value came out at 0.393.

Turning to RRIRLRPPRLPRPRPRPMWPPRP, the “shrunken log2 fold change” value was -0.0364.

In the case of RRIRPRPPRLPRPRPRPERPPRP, the “shrunken log2 fold change” value came to 0.309.

For the sequence RRIRIRPPRLPRPRPRPDLPPRP, the “shrunken log2 fold change” value was -0.334.

With RRIRCRPPRLPRPRPRPSWCPRP, the “shrunken log2 fold change” value is -0.417.

With RRIRGRPPRLPRPRPRPDPDPRP, the “shrunken log2 fold change” value is 0.776.

As for RRIRSRPPRLPRPRPRPEFEPRP, the “shrunken log2 fold change” value is 0.731.

Consider RRIRFRPPRLPRPRPRPFYCPRP, for which the “shrunken log2 fold change” value was -0.781.

As to RRIRYRPPRLPRPRPRPCHIPRP, the “shrunken log2 fold change” value was -0.0462.

Take RRIRNRPPRLPRPRPRPVMDPRP: the “shrunken log2 fold change” value was determined as 0.0106.

Turning to RRIRWRPPRLPRPRPRPRFWPRP, the “shrunken log2 fold change” value worked out at 0.455.

Regarding RRIRCRPPRLPRPRPRPNNQPRP, the “shrunken log2 fold change” value is -0.75.

On to RRIRMRPPRLPRPRPRPTQAPRP, for which the “shrunken log2 fold change” value was found to be 0.0839.

With RRIRYRPPRLPRPRPRPATRPRP, the “shrunken log2 fold change” value turned out to be 0.098.

Turning to RRIRGRPPRLPRPRPRPNRIPRP, the “shrunken log2 fold change” value was 0.281.

For RRIRMRPPRLPRPRPRPNKCPRP, the “shrunken log2 fold change” value came out at 0.216.
